According to patent publication US20230050038A1 (WASHINGTON UNIVERSITY, published 2023):
Residue numbers refer to the chain shown, from its start.

B1: Clone-01, PDGF-B variant displayed on the yeast surface (ligand)
chain: SLGSLTIAEPAMIAECKTRTELFRISRNLIDRTNANFLVWPPCVEVQRCSGCCNNRYVQCRPTQVQLRPVQVRKIEFVRKKPIFKKATVTLEDHLACRCETVAA
notes: not shown: Aga2p fusion partner, glycine-rich linkers and c-myc tag
B2: Clone-02, PDGF-B variant displayed on the yeast surface (ligand)
chain: B1 chain with K17N, L22V, Y57N, T101K
notes: as for B1
B3: Clone-03, PDGF-B variant displayed on the yeast surface (ligand)
chain: B1 chain with R98K, T101K
notes: as for B1
B4: Clone-07, PDGF-B variant displayed on the yeast surface (ligand)
chain: B1 chain with L22V, R24E, Y57N, R98K
notes: as for B1
B5: Clone-08, PDGF-B variant displayed on the yeast surface (ligand)
chain: B1 chain with F77I
notes: as for B1
B6: PDGF-B-cons (consensus sequence), displayed on the yeast surface (ligand)
chain: B1 chain with L22V
notes: Consensus of the isolated clones, tested on the yeast surface; also called PDGF-BB-cons; not shown: Aga2p fusion partner, glycine-rich linkers and c-myc tag

What follows are binders tested against T1, PDGFRβ soluble extracellular domain (UniProt P09619 33-532, limits assumed, fluorescently labeled) (assay: combinatorial yeast display library enriched by FACS for high binding signal to PDGFRβ ectodomain).
T1 construct: extracellular domain; also called PDGFRβ ectodomain; soluble PDGFRβ
T1 sequence (P09619 33-532 limits assumed): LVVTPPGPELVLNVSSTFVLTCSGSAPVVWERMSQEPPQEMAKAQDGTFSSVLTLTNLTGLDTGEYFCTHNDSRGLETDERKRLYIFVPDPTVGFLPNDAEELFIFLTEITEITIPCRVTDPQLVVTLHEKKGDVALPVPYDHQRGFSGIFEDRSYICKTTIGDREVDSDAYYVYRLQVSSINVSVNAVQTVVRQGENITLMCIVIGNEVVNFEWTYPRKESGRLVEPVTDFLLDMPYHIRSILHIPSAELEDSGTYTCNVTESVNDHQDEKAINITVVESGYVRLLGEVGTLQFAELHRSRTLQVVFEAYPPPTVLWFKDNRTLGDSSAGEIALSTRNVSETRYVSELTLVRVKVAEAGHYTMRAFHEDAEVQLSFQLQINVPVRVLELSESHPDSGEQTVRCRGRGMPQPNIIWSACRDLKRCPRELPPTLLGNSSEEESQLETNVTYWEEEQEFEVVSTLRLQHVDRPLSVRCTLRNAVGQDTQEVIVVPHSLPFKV
B1: binds.
B2: binds.
B3: binds.
B4: binds.
B5: binds.

The binders below were run against T1, PDGFRβ soluble extracellular domain (assay: yeast surface display, flow cytometry with soluble PDGFRβ).
B6: binds.
